Results reported in publication PMC2799420.

Target: Lyngbya majuscula JHB protein 7968 (Lyngbya majuscula JHB)
Test: PAGE analysis; kind of PAGE (native or SDS) and conditions not told; mentioned only in the discussion

stoichiometry N: 2
Substance: Lyngbya majuscula JHB protein 7968 (natural protein)
